Results taken from publication PMC10657414, “LncRNA INHEG promotes glioma stem cell maintenance and tumorigenicity through regulating rRNA 2’-O-methylation” (Nature Communications, 2023).

Target: T1, GST-tagged full-length TAF15 (human, UniProt Q92804 1-592)
T1 construct: TAF15, human, full length, cloned into pGEX-6p-1; Immobilised on glutathione-Sepharose 4B in the pull-down; also called GST-TAF15; source: E. coli BL21, purified (Glutathione Sepharose)
Assay: pull-down; GST pull-down: GST-TAF15 or GST alone immobilised on glutathione-Sepharose 4B, His-NOP58 added, 1 h at 4 °C in 50 mM Tris-HCl pH 7.5, 150 mM NaCl, 10 mM MgCl2, 10% glycerol, 1% Triton X-100, 1 mM DTT, 1% BSA; western blot; also with in vitro transcribed INHEG
Settings: both partners purified

T1 sequence (Q92804 whole entry): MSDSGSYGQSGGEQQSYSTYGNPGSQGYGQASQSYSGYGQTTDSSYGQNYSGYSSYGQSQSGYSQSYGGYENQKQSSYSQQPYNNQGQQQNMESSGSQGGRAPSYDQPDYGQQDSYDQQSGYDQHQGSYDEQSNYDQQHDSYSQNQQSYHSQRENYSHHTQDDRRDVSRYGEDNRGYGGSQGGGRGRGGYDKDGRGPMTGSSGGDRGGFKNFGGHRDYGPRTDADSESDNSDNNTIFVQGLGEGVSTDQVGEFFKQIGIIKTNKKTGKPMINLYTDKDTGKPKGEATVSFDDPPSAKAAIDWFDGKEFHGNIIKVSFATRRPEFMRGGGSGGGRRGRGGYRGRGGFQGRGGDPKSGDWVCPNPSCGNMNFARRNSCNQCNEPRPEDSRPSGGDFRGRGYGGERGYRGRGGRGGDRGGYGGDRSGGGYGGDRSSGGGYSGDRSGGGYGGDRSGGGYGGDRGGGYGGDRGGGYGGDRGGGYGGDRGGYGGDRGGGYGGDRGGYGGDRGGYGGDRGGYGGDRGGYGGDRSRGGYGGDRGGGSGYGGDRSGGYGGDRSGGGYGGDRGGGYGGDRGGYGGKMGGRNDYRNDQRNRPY

B1: His-tagged full-length NOP58 (natural protein, human, UniProt Q9Y2X3 1-529, looked up)
chain: MLVLFETSVGYAIFKVLNEKKLQEVDSLWKEFETPEKANKIVKLKHFEKFQDTAEALAAFTALMEGKINKQLKKVLKKIVKEAHEPLAVADAKLGGVIKEKLNLSCIHSPVVNELMRGIRSQMDGLIPGVEPREMAAMCLGLAHSLSRYRLKFSADKVDTMIVQAISLLDDLDKELNNYIMRCREWYGWHFPELGKIISDNLTYCKCLQKVGDRKNYASAKLSELLPEEVEAEVKAAAEISMGTEVSEEDICNILHLCTQVIEISEYRTQLYEYLQNRMMAIAPNVTVMVGELVGARLIAHAGSLLNLAKHAASTVQILGAEKALFRALKSRRDTPKYGLIYHASLVGQTSPKHKGKISRMLAAKTVLAIRYDAFGEDSSSAMGVENRAKLEARLRTLEDRGIRKISGTGKALAKTEKYEHKSEVKTYDPSGDSTLPTCSKKRKIEQVDKEDEITEKKAKKAKIKVKVEEEEEEKVAEEEETSVKKKKKRGKKKHIKEEPLSEEEPCTSTAIASPEKKKKKKKKRENED
notes: NOP58, human, full length, cloned into pET-28a; also called His-NOP58; source: E. coli BL21, purified (Ni-NTA)
binding result: binds
